Test [1] deals with phospho-p44/42 MAPK (Erk½). The test can be described thus: Agonist activity by Western blotting in NIH3T3 cells. It is filed as cell-based, mouse. As to conditions: VHH 100 nM, 30 minutes. The method, then: In order to verify the agonist activity for VHH-C(represented by #1_C in the drawing), #1-L4-#1, and #1_Fc, which were obtained in Examples above, the measurement was performed as described below using Western blotting for a change in expression level of Phospho-p44/42 MAPK (Erk½). Furthermore, a basic fibroblast growth factor (bFGF; manufactured by Fujifilm Wako Pure Chemical Corporation) was used as a positive control.
As NIH3T3, those described in Example 7 were used. NIH3T3 cells were seeded on a 6-well plate for cell culture at 2× 10^5 cells/well, and culture was performed overnight (37° C., in a 5% CO2 incubator, with light shielded). After washing with a serum-free medium, bFGF (final concentration: 10 ng/mL) or VHH (final concentration: 100 nM) diluted with the serum-free medium was added thereto, and normal culture was performed for 30 minutes. Thereafter, the well was washed with ice-cooled PBS, and the cells were peeled off with a cell scraper, transferred to a tube, and centrifuged at 300×g for 5 minutes at 4° C. to recover the cells. Thereafter, the cells were solubilized with a phosphatase inhibitor-containing RIPA buffer and left to stand on ice for 30 minutes. After the solubilization reaction, centrifugation was performed at 12,000×g for 15 minutes at 4° C. to recover the supernatant. […]

Test [2] has as its system NIH3T3 (mouse fibroblast cell line). Kind of test: Cell growth assay with NIH3T3 (Cell Titer Glo luminescence). The class given is cell-based. Here is the method: As a cell for measuring a cell growth activity, NIH3T3 (mouse fibroblast cell line) was obtained from ECACC through a domestic agent. The cell which was subjected to extended culture according to an ordinary method, and then freeze-preserved at −80° C. using CellBankeR1 plus (manufactured by Xenoac Co., Ltd.) was used. […]
The cell growth assay for FGF2 was performed according to the following procedure. […] The plate was further left to stand for 8 minutes, and then the luminescence in each well was measured with a Synergy HTX plate reader (manufactured by BioTek) with a sensitivity set (Gain) of 200 and a measurement time of 1 s/well.
The measurement was performed at three points at each concentration of the test substance, for the measurement at a single concentration, 100 ng/ml of FGF2 was used as a positive control and a condition of no addition was used as a negative control, and the VHH monomer was prepared with uniform 100-fold dilution, and measured. […] EC50 measurement data were obtained according to an ordinary method using a control software attached to a plate reader. The EC50 value was calculated by applying the 4-parameter fit.
Each stock of the VHH monomer (Clone #1: 2.65 mg/mL; Clone #2: 0.82 mg/mL-PBS) was diluted 100-fold to check the presence or absence of the cell growth activity. […] The vertical axis in FIG. 15 indicates a relative luminescence amount. […]
For orientation: Cellular ATP, detected with luciferase, serves as a proxy for viable cell number.

B1: #1-L4-#1: dimer of VHH #1 with linker L4 (GSEGKSSGSGSESKST), SEQ ID NO: 23 (protein)
VHH: QLQLVESGGGSVQAGGSLRLSCAASRSLSRFNVWTWYRQAPVKQRELVASITKSGDTNYAESVKGRFIISRDDDKNTVYLQMNNLKSEDTGIYYCAGSYYSGSYLYPSPGGFSVWGQGTQVTVSSGSEGKSSGSGSESKSTQLQLVESGGGSVQAGGSLRLSCAASRSLSRFNVWTWYRQAPVKQRELVASITKSGDTNYAESVKGRFIISRDDDKNTVYLQMNNLKSEDTGIYYCAGSYYSGSYLYPSPGGFSVWGQGTQVTVSS
modifications: #1-L4-#1
Turning to B1, in test [1], the “agonist activity (expression of phosphorylated p44/42 MAPK (Erk½))” value was “exhibit an agonist activity”.

B2: VHH Clone #2: alpaca-derived VHH single-domain antibody (monomer) binding FGFR1, amino acid sequence SEQ ID NO: 18 (protein)
VHH: QVQLVESGGGLVQAGGSLRLSCAVPGSIFRFNTMGWYRQPPGKQRELVAQMSRGGITKYGDSVKGRFTITRDNAKNTVHLQMNSLKPEDTAVYYCAGSYYSGSYYYPSPQGFSVWGQGTQVTVSP
modifications: VHH_Clone_#2
With B2, the “cell growth activity (relative luminescence amount, RLU)” value in test [2] (NIH3T3, serum-free, 2 days, 4-fold dilution series, compared with FGF2) is reported as “relative luminescence amount was low even at a high concentration”. Moreover, the “cell growth activity of VHH monomer (relative luminescence amount)” value in test [2] (NIH3T3, stock diluted 100-fold (Clone #2: 8.20 μg/mL)) is listed as “significantly exhibited a cell growth activity”.

The record behind these values is patent US20240279618A1, “RECEPTOR TYROSINE KINASE AGONIST, COMPOSITION FOR CELL CULTURE MEDIUM, AND […] MAINTENANCE COMPOSITION” (SEKISUI CHEMICAL CO., LTD., priority 2021, published 2024).
